Data from patent publication US20230348578A1, “CONFORMATION-SPECIFIC ANTIBODIES THAT BIND TAU PROTEIN AND USES THEREOF” (Beth Israel Deaconess Medical Center, Inc., priority 2020, published 2023).

Target: cis pT231-tau (P-tau peptide, pure cis or cis-locked)
Experiment: Biacore assay of binding affinity of humanized cis mAb variants
From the text: We next started to characterize and select lead humanized mAbs. We expressed and purified humanized mAb variants using a CHO expression system. We transfected over 45 plasmid DNA pairs of heavy and light chain cDNAs into CHO cells to express over 225 humanized cis mAb variants in various combinations. To evaluate the target binding specificity and affinity of our mouse mAbs, we established a simple and quantitative ELISA to screen the clones using a wild-type P-tau peptide and its pure cis or cis-locked, and pure trans counterparts and determined the binding affinity for selected clones using Biacore assays. We screened over 200 humanized cis mAb variants. […] Furthermore, one-tenth of humanized cis mAb variants were also able to recognize cis P-tau in human AD and TBI brains based on immunostaining analysis.
The binding affinity of selected humanized antibody clones was determined by Biacore assay using a wild-type P-tau peptide and its pure cis or cis-locked, and pure trans counterparts. The […] of the selected humanized cis mAb variants was determined by assessing their ability to eliminate cis P-tau in stressed neurons in cell cultures. Functional restoration of selected clones was determined by their ability to restore risk-taking behavior after 3-hit or 7-hit repetitive TBI in mice, as assayed by elevated plus maze.

Molecule | Kd [nM]
HT4: humanized cis-pThr231-tau mAb; heavy chain variable domain SEQ ID NO: 28, light chain variable domain SEQ ID NO: 16 (antibody, V domains shown) VH: QVQLVQSGAEVKKPGASVKVSCKASGYTFTSYWIHWVRQRPGQGLEWIGVIDPSDSYTRYNQKFKGRVTITRDTSASTAYMELSSLRSEDTAVYYCTTWEVDYWGQGTLVTVSS VL: DVVMTQSPLSLPVTLGQPASISCRSSQSLVHSDGNTYLHWYLQKPGQSPQLLIYKVSNRFSGVPDRFSGSGSGTDFTLKISRVEAEDVGVYFCSQSTHVPWTFGGGTKVEIK | 2.42
HT7: humanized cis-pThr231-tau mAb; heavy chain variable domain SEQ ID NO: 27, light chain variable domain SEQ ID NO: 18 (antibody, V domains shown) VH: QVQLVQSGAEVKKPGASVKVSCKASGYTFTSYWIHWVRQRPGQGLEWIGVIDPSDSYTRYNQKFKGRVTLTVDTSASTAYMELSSLRSEDTAVYYCTTWEVDYWGQGTLVTVSS VL: DVVMTQSPLSLPVTLGQPASISCRSSQSLVHSDGNTYLHWYLQKPGQSPQLLIYKVSNRDSGVPDRFSGSGSGTDFTLKISRVEAEDVGVYFCSQSTHVPWTFGGGTKVEIK | 10.8
HT6: humanized cis-pThr231-tau mAb; heavy chain variable domain SEQ ID NO: 26, light chain variable domain SEQ ID NO: 18 (antibody, V domains shown) VH: QVQLVQSGAEVKKPGASVKMSCKASGYTFTSYWIHWVKQRPGQGLEWIGVIDPSDSYTRYNQKFKGRATLTVDTSASTAYMELSSLRSEDTAVYYCTTWEVDYWGQGTLVTVSS VL: DVVMTQSPLSLPVTLGQPASISCRSSQSLVHSDGNTYLHWYLQKPGQSPQLLIYKVSNRDSGVPDRFSGSGSGTDFTLKISRVEAEDVGVYFCSQSTHVPWTFGGGTKVEIK | 6.48
HT11: humanized cis-pThr231-tau mAb; heavy chain variable domain SEQ ID NO: 27, light chain variable domain SEQ ID NO: 19 (antibody, V domains shown) VH: QVQLVQSGAEVKKPGASVKVSCKASGYTFTSYWIHWVRQRPGQGLEWIGVIDPSDSYTRYNQKFKGRVTLTVDTSASTAYMELSSLRSEDTAVYYCTTWEVDYWGQGTLVTVSS VL: DVVMTQSPLSLPVTLGQPASISCRSSQSLVHSDGNTYLHWYLQKPGQSPQLLIYKVSNRFSGVPDRFSGSGSGTDFTLKISRVEAEDVGVYYCSQSTHVPWTFGGGTKVEIK | 3.99

More lines, in order of falling Kd, values ahead:

Kd [nM] | Molecule
6.91 | HT5: humanized cis-pThr231-tau mAb; heavy chain variable domain SEQ ID NO: 25, light chain variable domain SEQ ID NO: 18 (antibody, V domains shown) VH: QVQLVQSGAELKKPGASVKMSCKASGYTFTSYWIHWVKQRPGQGLEWIGVIDPSDSYTRYNQKFKGRATLTVDTSASTAYMQLSSLTSEDSAVYYCTTWEVDYWGQGTTVTVSS VL: DVVMTQSPLSLPVTLGQPASISCRSSQSLVHSDGNTYLHWYLQKPGQSPQLLIYKVSNRDSGVPDRFSGSGSGTDFTLKISRVEAEDVGVYFCSQSTHVPWTFGGGTKVEIK
1.89 | HT9: humanized cis-pThr231-tau mAb; heavy chain variable domain SEQ ID NO: 25, light chain variable domain SEQ ID NO: 19 (antibody, V domains shown) VH: QVQLVQSGAELKKPGASVKMSCKASGYTFTSYWIHWVKQRPGQGLEWIGVIDPSDSYTRYNQKFKGRATLTVDTSASTAYMQLSSLTSEDSAVYYCTTWEVDYWGQGTTVTVSS VL: DVVMTQSPLSLPVTLGQPASISCRSSQSLVHSDGNTYLHWYLQKPGQSPQLLIYKVSNRFSGVPDRFSGSGSGTDFTLKISRVEAEDVGVYYCSQSTHVPWTFGGGTKVEIK
